Biological target: bovine trypsin (bovine, UniProt P00760)
Experiment: equilibrium dissociation constants (Ki) from enzyme inhibition

KKVCACPKILKPVCGSDGRTYANSCIARCNGVSIKSEGSCPTGILN (other)
binding result: binds

— US5972698 (Novartis Corporation, dated 1999)
